This is an account of results in US20220265711A1 (NANJING LEGEND BIOTECH, published 2022).

One assay deals with human CD4 (human, UniProt P01730 26-458). The experiment in a line: cell-based or functional assay.
A further assay has as its target T1, HEK293-6E/domain5 (Mus musculus;Homo sapiens, UniProt P06332;P01730).
T1 construct: full-length backbone without its own intracellular domain;single domain inserted in the mouse backbone; transiently expressed on HEK-293 cells; the human part is intracellular, the extracellular part is mouse CD4; also called hybrid CD4 protein: mouse CD4 backbone with human CD4 intracellular domain; D5
Description: flow cytometry on HEK293-6E cells expressing mouse CD4 with human CD4 domain 5 (intracellular), against isotype control. An excerpt:
(§1) CD4 is a member of immunoglobulin superfamily. It contains four extracellular immunoglobulin domains, Domain 1 to 4 from distal to proximal to cell membrane. The four CD4 extracellular domains and its intracellular domain were named D1-D5 and were expressed transiently with a mouse CD4 backbone in HEK-293 cells. The three antibodies were used to detect human CD4 D1-D5 expression by flow cytometry on these 293 cells.

In assay [1] the target is T2, hybrid CD4 protein: mouse CD4 backbone with human CD4 Domain 1 (human; mouse, UniProt P06332 129-457, limits assumed).
T2 construct: Transiently expressed on HEK-293 cells from the pcDNA3.4 vector; also called D1
Description: flow cytometry on HEK293-6E cells expressing mouse CD4 with human CD4 domain 1, against isotype control.
Excerpt: as §1

T2 sequence (P06332 other isoform, or with tags, fused parts or gaps limits assumed): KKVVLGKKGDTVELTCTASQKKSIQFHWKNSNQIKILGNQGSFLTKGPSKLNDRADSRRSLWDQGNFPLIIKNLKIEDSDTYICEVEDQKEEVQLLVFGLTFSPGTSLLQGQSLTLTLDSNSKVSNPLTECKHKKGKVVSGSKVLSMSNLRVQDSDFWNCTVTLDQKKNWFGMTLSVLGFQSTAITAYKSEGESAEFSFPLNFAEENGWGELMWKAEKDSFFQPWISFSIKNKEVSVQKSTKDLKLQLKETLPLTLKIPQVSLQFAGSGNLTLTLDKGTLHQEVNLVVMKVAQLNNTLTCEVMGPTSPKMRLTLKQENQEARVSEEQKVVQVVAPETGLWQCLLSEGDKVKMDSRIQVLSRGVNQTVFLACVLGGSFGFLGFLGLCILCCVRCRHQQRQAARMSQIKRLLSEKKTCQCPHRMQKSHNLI
T1 sequence (P06332 other isoform, or with tags, fused parts or gaps limits assumed): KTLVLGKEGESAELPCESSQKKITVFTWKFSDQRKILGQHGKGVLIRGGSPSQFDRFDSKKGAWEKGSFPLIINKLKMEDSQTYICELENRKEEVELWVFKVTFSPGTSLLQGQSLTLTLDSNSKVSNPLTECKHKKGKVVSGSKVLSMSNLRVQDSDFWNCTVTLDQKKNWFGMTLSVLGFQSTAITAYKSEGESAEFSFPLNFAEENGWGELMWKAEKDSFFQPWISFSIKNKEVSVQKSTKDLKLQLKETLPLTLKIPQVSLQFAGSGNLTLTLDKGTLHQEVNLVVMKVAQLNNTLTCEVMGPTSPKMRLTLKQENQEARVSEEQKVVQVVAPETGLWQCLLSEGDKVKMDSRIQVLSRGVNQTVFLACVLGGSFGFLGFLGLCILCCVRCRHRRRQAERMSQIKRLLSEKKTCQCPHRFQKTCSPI

B1: CAR No. 6 (anti-CD4 chimeric antigen receptor) (other)
chain: QIQLVQSGPELKKPGETVKISCKASGYTFTNYGMNWVKQAPGKGLKCMGWINTNTGEPTYAEEFKGRFAFSLETSATTAFLQINNLKDEDTATYFCARLGLYYDYGYYAMDYWGQGASVTVSSGGGGSGGGGSGGGGSNIVLTQSPASLAVSLGQRATISCRASESVDSYGNSFMHWYQQKPGQPPKLFIYLASNLESGVPARFSGSGSRTDFTLTIDPVEADDAATYYCQQNNEDPYTFGGGTKLEIKTTTPAPRPPTPAPTIASQPLSLRPEACRPAAGGAVHTRGLDFACDIYIWAPLAGTCGVLLLSLVITLYCKRGRKKLLYIFKQPFMRPVQTTQEEDGCSCRFPEEEEGGCELRVKFSRSADAPAYKQGQNQLYNELNLGRREEYDVLDKRRGRDPEMGGKPRRKNPQEGLYNELQKDKMAEAYSEIGMKGERRRGKGHDGLYQGLSTATKDTYDALHMQALPPR
On to B1, for which, in the assay with human CD4, the “CD4+ cells in the effector population after 24 h co-culture (18.9% in UNT control)” value (shortened to “CD4+ cells … (18.9% in UNT control)”) amounted to 13.1%.

B2: CAR No. 4 (anti-CD4 chimeric antigen receptor, scFv derived from SK3) (other)
chain: QVQLQQSGPELVKPGASVKMSCKASGYTFTDYVINWVKQRTGQGLEWIGETYTGSGSSYYNEKFKDKATLTVDKASNIAYMQLSSLTSEDSAVYFCARRGKGTGFAFWGQGTLVTVSAGGGGSGGGGSGGGGSDIVLTQSPASLAVSLGQRATISCKASQSVDYDGDSYMNWYQQKPGQPPKLLIYAASNLESGIPARFTGSGSGTDFTLNIHPVEEEDTATYYCQQSYEDPPTFAGGTNLEIKTTTPAPRPPTPAPTIASQPLSLRPEACRPAAGGAVHTRGLDFACDIYIWAPLAGTCGVLLLSLVITLYCKRGRKKLLYIFKQPFMRPVQTTQEEDGCSCRFPEEEEGGCELRVKFSRSADAPAYKQGQNQLYNELNLGRREEYDVLDKRRGRDPEMGGKPRRKNPQEGLYNELQKDKMAEAYSEIGMKGERRRGKGHDGLYQGLSTATKDTYDALHMQALPPR
Take B2: in the assay with human CD4, the “CD4+ cells … (18.9% in UNT control)” value came to 0%.

B3: CAR No. 3 (anti-CD4 chimeric antigen receptor, Tregalizumab VH/VL) (other)
chain: EEQLVESGGGLVKPGGSLRLSCAASGFSFSDCRMYWLRQAPGKGLEWIGVISVKSENYGANYAESVRGRFTISRDDSKNTVYLQMNSLKTEDTAVYYCSASYYRYDVGAWFAYWGQGTLVTVSSAGGGGSGGGGSGGGGSDIVMTQSPDSLAVSLGERATINCRASKSVSTSGYSYIYWYQQKPGQPPKLLIYLASILESGVPDRFSGSGSGTDFTLTISSLQAEDVAVYYCQHSRELPWTFGQGTKVEIKRTTTPAPRPPTPAPTIASQPLSLRPEACRPAAGGAVHTRGLDFACDIYIWAPLAGTCGVLLLSLVITLYCKRGRKKLLYIFKQPFMRPVQTTQEEDGCSCRFPEEEEGGCELRVKFSRSADAPAYKQGQNQLYNELNLGRREEYDVLDKRRGRDPEMGGKPRRKNPQEGLYNELQKDKMAEAYSEIGMKGERRRGKGHDGLYQGLSTATKDTYDALHMQALPPR
B3: the “CD4+ cells … (18.9% in UNT control)” value with human CD4 is 12.5%.

B4: Ibalizumab (antibody, V domains shown)
VH: QVQLQQSGPEVVKPGASVKMSCKASGYTFTSYVIHWVRQKPGQGLDWIGYINPYNDGTDYDEKFKGKATLTSDTSTSTAYMELSSLRSEDTAVYYCAREKDNYATGAWFAYWGQGTLVTVSS
VL: DIVMTQSPDSLAVSLGERVTMNCKSSQSLLYSTNQKNYLAWYQQKPGQSPKLLIYWASTRESGVPDRFSGSGSGTDFTLTISSVQAEDVAVYYCQQYYSYRTFGGGTKLEIKR
notes: also called Ibalizumab monoclonal antibody
In the case of B4, the binding result (with HEK293-6E/domain5; in assay [1]) was “no binding” throughout.

B5: Tregalizumab (antibody, V domains shown)
VH: EEQLVESGGGLVKPGGSLRLSCAASGFSFSDCRMYWLRQAPGKGLEWIGVISVKSENYGANYAESVRGRFTISRDDSKNTVYLQMNSLKTEDTAVYYCSASYYRYDVGAWFAYWGQGTLVTVSS
VL: DIVMTQSPDSLAVSLGERATINCRASKSVSTSGYSYIYWYQQKPGQPPKLLIYLASILESGVPDRFSGSGSGTDFTLTISSLQAEDVAVYYCQHSRELPWTFGQGTKVEIKR
notes: also called Tregalizumab monoclonal antibody
For the molecule B5, the binding result (in the assay with HEK293-6E/domain5; in assay [1]) was “no binding” throughout.
